Reference: paper PMC6829520

B1: hTREK-1 / hK2P2.1: N110Q (protein)
parent chain: MLPSASRERPGYRAGVAAPDLLDPKSAAQNSKPRLSFSTKPTVLASRVESDTTINVMKWKTVSTIFLVVVLYLIIGATVFKALEQPHEISQRTTIVIQKQTFISQHSCVNSTELDELIQQIVAAINAGIIPLGNTSNQISHWDLGSSFFFAGTVITTIGFGNISPRTEGGKIFCIIYALLGIPLFGFLLAGVGDQLGTIFGKGIAKVEDTFIKWNVSQTKIRIISTIIFILFGCVLFVALPAIIFKHIEGWSALDAIYFVVITLTTIGFGDYVAGGSDIEYLDFYKPVVWFWILVGLAYFAAVLSMIGDWLRVISKKTKEEVGEFRAHAAEWTANVTAEFKETRRRLSVEIYDKFQRATSIKRKLSAELAGNHNQELTPCRRTLSVNHLTSERDVLPPLLKTESIYLNGLTPHCAGEEIAVIENIK
B2: hTREK-1 / hK2P2.1: tunicamycin (incubation or injection) (protein)
parent chain: B1 parent chain
B3: hTREK-1 / hK2P2.1: tunicamycin coinjection (2 or 3 ng per oocyte) (protein)
parent chain: B1 parent chain
B4: hTREK-1 / hK2P2.1: N110Q/N134Q (protein)
parent chain: B1 parent chain
B5: hTREK-1 / hK2P2.1: tunicamycin (protein)
parent chain: B1 parent chain
B6: hTREK-1 / hK2P2.1: N134Q (protein)
parent chain: B1 parent chain
B7: hTREK-1 / hK2P2.1: tunicamycin incubation (0.75 or 1.5 mg/L) (protein)
parent chain: B1 parent chain

Legend:
[1] = TEVC pulse step protocol, oocytes, 48 h; settings: glycan lost; control: wild type
TEVC, Xenopus oocytes = settings: glycan lost
[2] = eGFP fluorescence microscopy with WGA membrane stain, HeLa; settings: glycan lost; control: hTREK-1-WT-eGFP
[3] = surface biotinylation, streptavidin pull-down, immunoblot, HEK-293T; settings: glycan lost; control: wild type
[4] = TEVC, Xenopus oocytes, +20 mV, 48 h; settings: glycan lost; control: wild type
[5] = TEVC, oocytes, 24 h versus 48 h; settings: glycan lost; control: wild type
[6] = TEVC, Xenopus oocytes, +20 mV, 24/48 h; settings: glycan lost; control: DMSO vehicle
[7] = TEVC pulse step protocol, oocytes; settings: glycan lost; control: DMSO vehicle

Protein	other: current-voltage relationship [1]	other: resting membrane potential (TEVC, Xenopus oocytes; control: wild type)	localisation_or_trafficking [2]	localisation_or_trafficking, other: reduction of surface fraction relative to WT [3]	other: channel current, percent_of_wt [4]	other: current at 24 h relative to 48 h (onset of current), other: 24 h current as % of 48 h current [5]	other results
B1	no change	changes	no change	decreases, reduction of surface protein expression (about 16 % for both, N110Q and N134Q)	decreases	decreases, 54 vs 57 % to 66%	
B2							other: resting membrane potential (TEVC, Xenopus oocytes; control: DMSO vehicle): changes
B3							other: channel current [6]: decreases
B4	no change	changes	no change	decreases, accompanied by a reduction in surface expression of 70.2%	decreases, a current reduction of 65.5 ± 0.7 % in nonglycosylated subunits	decreases, 31 vs 57 % to 66%	
B5							other: current-voltage relationship [7]: no change
B6	no change	changes	no change	decreases	decreases	decreases, 41 vs 57 % to 66%	
B7							other: channel current [6]: decreases, tunicamycin treatment (incubation with 1.5 mg/L) resulted in a current reduction of 79.4%
